Reference: the DeepSol protein solubility set

Assay: soluble on expression in E. coli; label from the status in PepcDB or PDB records

Sequence	soluble on expression in E. coli
MSTVQVPKLNTKDLLTLEELTQEEIISLIEFAIYLKKNKQEPLLQGKILGLIFDKHSTRTRVSFEAGMVQLGGHGMFLNGKEMQMGRGETVSDTAKVLSHYIDGIMIRTFSHADVEELAKESSIPVINGLTDDHHPCQALADLMTIYEETNTFKGIKLAYVGDGNNVCHSLLLASAKVGMHMTVATPVGYKPNEEIVKKALAIAKETGAEIEILHNPELAVNEADFIYTDVWMSMGQEGEEEKYTLFQPYQINKELVKHAKQTYHFLHCLPAHREEEVTGEIIDGPQSIVFEQAGNRLHAQKALLVSLFKNVEELS	not soluble
MSVDPNLLTPYKNTGAANASLRQISEDAFYVVNEVVMKRLGHVPILKGDFHLLPAKVQRFIAEKAELMRPRGIFICDGSQHEADELIDKLIERGMLSKLEAYENNYICRTDPKDVARVESKTWMVTKNKYDTVTHTKEGVEPIMGHWLAPEDLATELDSRFPGCMAGRIMYVIPFSMGPVGGPLSKIGIQLTDSNYVVLSMRIMTRVNNDVWDALGNQDFVRCIHSVGLPRPVKQRVINHWPCNPERVLIAHRPPEREIWSFGSGYGGNSLLGKKCFALRIASNIAKDEGWMAEHMLIMGVTRPCGREHFIAAAFPSACGKTNLAMLEPTLPGWKVRCVGDDIAWMKFGEDGRLYAINPEAGFFGVAPGTSNKTNPMAVATFQKNSIFTNVAETANGEYFWEGLEDEIADKNVDITTWLGEKWHIGEPGVAAHPNSRFAAPANQCPIIHPDWESPQGVPIEAIIFGGRRPQGVPLIYETNSWEHGVFTGSCLKSEATAAAEFTGKTVMHDPMAMRPFMGYNFGKYLQHWLDLKTDSRKMPKIYHVNWFRKDSNNKFLWPGFGDNIRVIDWIIRRLDGEQEIGVETPIGTVPAKGSINLEGLGEVNWDELMSVPADYWKQDAQEIRKFLDEQVGEDLPEPVRAEMDAQEKRVQTL	not soluble
MSVGYDRLKTSSLAELRAAIRSGAYRSHTAGLGQGYLQANLAILPEAYALDFMRYCQRNPKPCPLIGVSDTGNPMMFTLGRDIDIRTDVPAYNVYRDGRLDSVSADITEDWRDDLVVFALGCSFTFEHAVMRAGVALWHVDNDRTVPMFRSNIETVPAGPFSGKMVVSMRAVPEDRVAEVAEISRAYPLAHGAPVYWGDPAGLGIADIMSPDWGDPAPLGPGEVPMFWACGVTPQVAIEAARLPLCITHKPGHMLITDVAEDAEVPVVETAQDKRLEHHHHHH	soluble
MSVIKMTDLDLAGKRVFIRADLNVPVKDGKVTSDARIRASLPTIELALKQGAKVMVTSHLGRPTEGEYNEEFSLLPVVNYLKDKLSNPVRLVKDYLDGVDVAEGELVVLENVRFNKGEKKDDETLSKKYAALCDVFVMDAFGTAHRAQASTHGIGKFADVACAGPLLAAELDALGKALKEPARPMVAIVGGSKVSTKLTVLDSLSKIADQLIVGGGIANTFIAAQGHDVGKSLYEADLVDEAKRLLTTCNIPVPSDVRVATEFSETAPATLKSVNDVKADEQILDIGDASAQELAEILKNAKTILWNGPVGVFEFPNFRKGTEIVANAIADSEAFSIAGGGDTLAAIDLFGIADKISYISTGGGAFLEFVEGKVLPAVAMLEERAKK	soluble
MSVINKIVARRTQLSQSGRLVGDWIVENAEKAAQLTSQELAAQVKVSQSSIVKFTQRIGFKGYSEFKLALNEEIGRKHAMQSTPLHSDILADDPIAVISQKLVKAKTDAMFQTTNALSYEACHQAVKWLSEARRVQVVGIGGSALTAKDLSFKLLKLGITALSEQDSHVQIAVARTLSSEDVQIAISYSGERKEILVAAEAAKEQGAKVIALSAPGRSRLRGIADITFDTIANETEHRSSSIASRTAQNVITDLLFIILVQQRDESARQLISDISTDIKQILT	not soluble
MSVLEGINSKALKTGNAGKNLKFKKIGDLPPPSPSPNTFRIYSMRFCPAAQRALIYASVKKIPSEVININLQQKPDWYFTKNYKGQVPTLEHAEGKKLVIESAVIPEYLDDIFPETKILPSDPYEKVQQKLLLERLSDQLTPAFGRVFRAIKNPEELKEKFESILKAFEEAESLLEGAFYSGTSSPGFVDYLIYPSFQRVYWLTFLLEIFPLPSDNFPGPGYPKLSQWFKAITAIPEVAAASQSTENGVGSCKEYMKGLPYFDYGL	not soluble
MSVLQRIVSRRTQLSESGRQIGDWVLANAAQAAAMTSQDLAAWANVSQSSIVKFTQRLGFKGYSEFKLALTEELGRKQVMVNQPLHSNILADDPVAVIAQKLVQTKTEAMFHTTNALRLDEFSEAISWIQQAVRVQIIGIGGSALVAKDLAFKLLKLGITALTEQDSHVQIATARTLHSQDVLIAISFSGEKREILIAAEAAKQQGAKVIALTTPNKNRLREIADLALDTIADETQHRSSAIASRTAQNVLTDLIFLTLTQQRETSARQLIDDISSDIRQMR	not soluble
MSVNEADLNAVEEQLGRAPRGVLDISYRSPDGVPGVVMTAPKLDDGTPFPTLYYLTDPRLTTEASRLEVALVMKWMTDRLSTDEELRADYQRAHEHFLAKRNAIEDLGTDFSGGGMPDRVKCLHVLIAYALAEGPDHFRLGTEAVAMAAEHGDLRGTAIPEDWPTVQDLGINMEDFDFSRAGGA	not soluble
MSVVPVADVLQGRVAVDSEVTVRGWVRTRRDSKAGISFLAVYDGSCFDPVQAVINNSLPNYNEDVLRLTTGCSVIVTGKVVASPGQGQQFEIQASKVEVAGWVEDPDTYPMAAKRHSIEYLREVAHLRPRTNLIGAVARVRHTLAQALHRFFNEQGFFWVSTPLITASDTEGAGEMFRVSTLDLENLPRNDQGKVDFDKDFFGKESFLTVSGQLNGETYACALSKIYTFGPTFRAENSNTSRHLAEFWMLEPEVAFANLNDIAGLAEAMLKYVFKAVLEERADDMKFFAERVDKDAVSRLERFIEADFAQVDYTDAVTILENCGRKFENPVYWGVDLSSEHERYLAEEHFKAPVVVKNYPKDIKAFYMRLNEDGKTVAAMDVLAPGIGEIIGGSQREERLDVLDERMLEMGLNKEDYWWYRDLRRYGTVPHSGFGLGFERLIAYVTGVQNVRDVIPFPRTPRNASF	soluble
MSWWQRAVIYQVYPRSFQDTNGDGVGDLEGIRRRLPYLKSLGVDALWLSPFYKSPMKDFGYDVADYCDVDPVFGTLQDFDRLLEEAHALGLKVLVDLVPNHTSSEHPWFLESRASRNSPKRDWYIWKDPAPDGGPPNNWQSFFGGPAWTLDEATGQYYLHLFLPEQPDLNWRNPEVREAIKEVMRFWLRRGVDGFRVDVLWLLGKDPLFRDEPGSPLWRPGLPDRARHEHLYTEDQPETYAYVREMRQVLDEFSEPGRERVMVGEIYLPLPRLVRYYAAGCHLPFNFSLVTEGLSDWRPENLARIVETYEGLLSRWDWPNWVLGNHDQPRLASRLGEPQARVAAMLLFTLRGTPTWYYGDELALPNGLIPPEKVQDPAALRQRDREPTAYHTLGRDPERTPMPWDASPYGGFSTVEPWLPLNPDYRTRNVAAQEKDPRSMLHLVKRLIALRKDPDLLYGAYRTYRAREGVYAYLRGEGWLVALNLTEKEKALELPRGGRVVLSTHLDREERVGERLFLRPDEGVAVRLD	soluble
MSYNGSYHQNHHSTLQVKSKFDSEWRRFSIPMHSASGVSYDGFRSLVEKLHHLESVQFTLCYNSTGGDLLPITNDDNLRKSFESARPLLRLLIQRRGESWEEKYGYGTDSDKRWKGISSLMAQKPPKRSYSISNPEDFRQVSAIIDVDIVPEAHRRVRLCKHGQERPLGFYIRDGTSVRVTERGVVKVSGIFISRLVDGGLAESTGLLGVNDEVLEVNGIEVLGKTLDQVTDMMVANAHNLIITVKPANQRNTLSRGPSQQGTPNASEMSAATAAATGGIQRPMKMNGSSDGSYHPKQHDANDSDSGED	not soluble
MSYQSLLTHRCDIYHLQEKKENRKQKFGVPVEDVQPVFSYPDEPDIENQPCYFTEKSQSIIQQESNVSIYQSFLVHFPATADIRVNDRAVWDGTAYKLQKPRKIRNHHWEVTAVREVEYLLEHHHHHH	soluble
MSYYHHHHHHLESTSLYKKAGLNNFNLHTPTRILFGKGAIAGLREQIPHDARVLITYGGGSVKKTGVLDQVLDALKGMDVLEFGGIEPNPAYETLMNAVKLVREQKVTFLLAVGGGSVLDGTKFIAAAANYPENIDPWHILQTGGKEIKSAIPMGCVLTLPATGSESNAGAVISRKTTGDKQAFHSAHVQPVFAVLDPVYTYTLPPRQVANGVVDAFVHTVEQYVTKPVDAKIHDRFAEGILLTLIEDGPKALKEPENYDVRANVMWAATQALNGLIGAGVPQDWATHMLGHELTAMHGLDHAQTLAIVLPALWNEKRDTKRAKLLQYAERVWNITEGSDDERIDAAIAATRNFFEQLGVPTHLSDYGLDGSSIPALLKKLEEHGMTQLGENHDITLDVSRRIYEAAR	soluble
